The target of the data set is Cre recombinase (Bacteriophage P1?) (UniProt P06956). Put plainly: cell_activity. Conditions: pCH110 control without loxP in Sure:cre.
UniProt P06956, sequence (P06956 whole entry): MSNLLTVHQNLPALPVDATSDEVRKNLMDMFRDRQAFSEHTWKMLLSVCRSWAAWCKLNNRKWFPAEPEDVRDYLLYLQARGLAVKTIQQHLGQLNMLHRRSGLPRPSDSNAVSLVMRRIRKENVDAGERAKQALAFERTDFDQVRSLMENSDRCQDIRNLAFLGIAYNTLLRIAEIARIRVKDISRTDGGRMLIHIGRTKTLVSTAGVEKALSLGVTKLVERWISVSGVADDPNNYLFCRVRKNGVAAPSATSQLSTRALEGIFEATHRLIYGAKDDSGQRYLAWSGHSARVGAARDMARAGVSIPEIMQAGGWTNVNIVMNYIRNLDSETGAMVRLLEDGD

On to pCH110 plasmid without loxP, for which the activity (% white colonies) worked out at 0.

(Values after US20060166332.)
